In the supplement of paper PMC7125110:
± gives the standard error. For part of these data: Fewer inactive variants are shown than the library holds.

B1: glmS ribozyme (parent)
chain: AUAAAAGCGCCAGAACUACAGAAAUGUAGUUGACGAGGAGGAGGUUUAUCGAAUUUUCGGCGGAUGCCUCCAAA

Assays:
Details in all cases: with glucosamine-6-phosphate
glucosamine-6-phosphate [1] = variants of: B1; assay: kcat; higher = faster cleavage; RNA array
How it was run: (§1)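 Glucosamine-6-phosphate, from 40 μM to 10 mM in HEPES/KCl/Mg(OAc)2 buffer, was flowed over sequenced MiSeq chips carrying barcoded ribozyme variants transcribed in situ by E. coli RNA polymerase. A hybridised Cy3 probe tracked the variants at 37 °C as tiles were imaged over ~14 h. kobs, kcat and KM were obtained by fitting normalised per-tile medians to exponential decays and then applying weighted Michaelis–Menten fits across concentrations.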

glucosamine-6-phosphate [2] = variants of: B1; assay: KM; higher = weaker cofactor use; RNA array
How it was run: as §1

glucosamine-6-phosphate [3] = variants of: B1; assay: self-cleavage kobs at 40 uM GlcN6P; higher = faster cleavage; RNA array
How it was run: as §1

glucosamine-6-phosphate [4] = variants of: B1; assay: self-cleavage kobs at 160 uM GlcN6P; higher = faster cleavage; RNA array
How it was run: as §1

glucosamine-6-phosphate [5] = variants of: B1; assay: self-cleavage kobs at 640 uM GlcN6P; higher = faster cleavage; RNA array
How it was run: as §1

glucosamine-6-phosphate [6] = variants of: B1; assay: self-cleavage kobs at 2500 uM GlcN6P; higher = faster cleavage; RNA array
How it was run: as §1

glucosamine-6-phosphate [7] = variants of: B1; assay: self-cleavage kobs at 10000 uM GlcN6P; higher = faster cleavage; RNA array
How it was run: as §1

Row | Variant | kcat (glucosamine-6-phosphate [1]) [s⁻¹] | KM (glucosamine-6-phosphate [2]) [µM] | self-cleavage kobs at 40 uM GlcN6P (glucosamine-6-phosphate [3]) [s⁻¹] | self-cleavage kobs at 160 uM GlcN6P (glucosamine-6-phosphate [4]) [s⁻¹] | self-cleavage kobs at 640 uM GlcN6P (glucosamine-6-phosphate [5]) [s⁻¹] | self-cleavage kobs at 2500 uM GlcN6P (glucosamine-6-phosphate [6]) [s⁻¹] | self-cleavage kobs at 10000 uM GlcN6P (glucosamine-6-phosphate [7]) [s⁻¹]
1 | U65G C67G | 0.00141 ± 6.7e-05 | 1630 ± 120 | 3.46e-05 ± 6.7e-06 | 0.00012 ± 1.6e-05 | 0.000419 ± 4.6e-05 | 0.00082 ± 0.00011 | 0.00122 ± 0.00014
2 | A6C A12C G59C | – | – | < 1e-05 | – | < 1e-05 | – | < 1e-05
3 | G66A C71G | 0.00165 ± 0.00056 | 1470 ± 720 | 5.97e-05 ± 7.2e-06 | 0.000141 ± 1.8e-05 | 0.000486 ± 6.2e-05 | 0.000935 ± 9.9e-05 | 0.00264 ± 0.00044
4 | C16U G66A | – | 1520 ± 640 | 0.000448 ± 9.7e-05 | 0.00133 ± 0.00023 | 0.00417 ± 0.00068 | 0.00873 ± 0.0019 | 0.0329 ± 0.014
5 | C61G U69C C70G | 5.75e-05 ± 1.9e-05 | – | – | 5.95e-05 ± 2.1e-05 | 6.36e-05 ± 2.5e-05 | 8.71e-05 ± 4.1e-05 | –
6 | A6C G63A | – | – | < 1e-05 | < 1e-05 | < 1e-05 | – | –
7 | G66U C71U | 0.00186 ± 0.00045 | 2150 ± 760 | 3.7e-05 ± 8.7e-06 | 0.000107 ± 1.4e-05 | 0.000471 ± 4.1e-05 | 0.00174 ± 0.00026 | 0.0014 ± 0.00014
8 | G66U C71A | 0.000234 ± 2.4e-05 | 1020 ± 250 | – | 3.4e-05 ± 1e-05 | 8.54e-05 ± 8.7e-06 | 0.000205 ± 2.4e-05 | 0.000202 ± 1.9e-05
9 | A6C C16A | – | – | < 1e-05 | < 1e-05 | < 1e-05 | < 1e-05 | –
10 | A6C U49G C67U | – | – | < 1e-05 | – | – | < 1e-05 | –
11 | A6G G7U | – | – | < 1e-05 | < 1e-05 | – | < 1e-05 | < 1e-05
12 | G66A C67A | 0.00809 ± 0.0018 | 1620 ± 470 | 0.000216 ± 3.4e-05 | 0.000708 ± 0.00012 | 0.00222 ± 0.0004 | 0.00373 ± 0.00093 | 0.00873 ± 0.0016
13 | A6G A12U C61U | – | – | < 1e-05 | – | – | – | < 1e-05
14 | C67U C70A | 1.69e-05 ± 4.5e-06 | – | – | – | – | – | –
15 | C67U C70U | 0.000418 ± 1.7e-05 | 1370 ± 110 | – | 4.68e-05 ± 6.2e-06 | 0.000132 ± 9.5e-06 | 0.000264 ± 2e-05 | 0.000377 ± 3e-05
16 | G41U A52C | – | 3260 ± 480 | – | – | – | – | –
17 | A6C G32C | – | – | < 1e-05 | < 1e-05 | – | < 1e-05 | < 1e-05
18 | A6C U45C G63A | – | – | < 1e-05 | – | – | < 1e-05 | –
19 | A6C G35A | – | – | < 1e-05 | < 1e-05 | < 1e-05 | < 1e-05 | < 1e-05
20 | A6G A15C A53G | – | – | < 1e-05 | – | – | 6.25e-05 ± 2e-05 | –
21 | A6C G9A | – | – | < 1e-05 | – | – | – | < 1e-05
22 | C61U C70G | 1.1e-05 ± 2e-06 | – | – | – | – | – | –

Row | Variant | kcat (glucosamine-6-phosphate [1]) [s⁻¹] | KM (glucosamine-6-phosphate [2]) [µM] | self-cleavage kobs at 40 uM GlcN6P (glucosamine-6-phosphate [3]) [s⁻¹] | self-cleavage kobs at 160 uM GlcN6P (glucosamine-6-phosphate [4]) [s⁻¹] | self-cleavage kobs at 640 uM GlcN6P (glucosamine-6-phosphate [5]) [s⁻¹] | self-cleavage kobs at 2500 uM GlcN6P (glucosamine-6-phosphate [6]) [s⁻¹] | self-cleavage kobs at 10000 uM GlcN6P (glucosamine-6-phosphate [7]) [s⁻¹]
23 | U2A A3U C50A | – | – | < 1e-05 | – | – | – | 3.38e-05 ± 1.2e-05
24 | A64U C67G | < 1e-05 | – | < 1e-05 | – | < 1e-05 | – | –
25 | A6C G13C G29U C70G | – | – | < 1e-05 | – | – | – | –
26 | A15U U46G G51U | – | 56.5 ± 15 | – | – | – | – | –
27 | G66C C67U | 2.82e-05 ± 1.9e-06 | 1800 ± 520 | – | – | – | – | 2.37e-05 ± 7.3e-06
28 | G38U U65G | – | 107 ± 46 | – | – | – | – | –
29 | A6C G35U A36C | – | – | < 1e-05 | – | – | < 1e-05 | < 1e-05
30 | A6G A14G A39C | – | – | < 1e-05 | – | – | 9.9e-05 ± 2.3e-05 | 0.000209 ± 4.5e-05
31 | G62U C67G C68U | 1.17e-05 ± 4.6e-06 | – | – | – | – | – | –
32 | U65C G66A | 0.000598 ± 0.00017 | – | – | – | 0.000112 ± 3.9e-05 | 0.000323 ± 0.00014 | 0.000416 ± 7.9e-05
33 | C68U U69G C70U | 1.34e-05 ± 6e-06 | – | – | – | – | – | –
34 | G62C C68G | 1.08e-05 ± 2.7e-06 | – | – | – | – | – | < 1e-05
35 | A64U C71U | 0.000158 ± 5.9e-05 | – | – | – | 3.94e-05 ± 1.3e-05 | 3.79e-05 ± 1.6e-05 | 0.000112 ± 1.6e-05
36 | A1U U2G A3G C8G A12U G63C C68A | – | – | < 1e-05 | – | – | < 1e-05 | < 1e-05
37 | U69C | 0.00361 ± 0.00043 | 201 ± 40 | 0.000631 ± 3.9e-05 | 0.00145 ± 0.00011 | 0.00268 ± 0.0002 | 0.00383 ± 0.00039 | –
38 | G63A C68G | 1.26e-05 ± 3.4e-06 | – | – | – | – | – | –
39 | G63A C68A | 2.09e-05 ± 4.7e-06 | – | – | – | – | – | –
40 | A6C A15C U54C C71U | – | – | < 1e-05 | – | – | – | –
41 | A64C C67U | – | 657 ± 190 | – | – | – | – | –
42 | A36U A53U | – | 148 ± 37 | – | – | – | – | –
43 | G66C C70U | 0.00129 ± 0.00032 | 1440 ± 670 | 4.77e-05 ± 9.1e-06 | 0.000178 ± 3.5e-05 | 0.000285 ± 4.7e-05 | 0.00109 ± 0.00013 | 0.0011 ± 0.00011
44 | A6G C50G A64U | – | – | 7.9e-05 ± 3.2e-05 | – | – | – | 0.000157 ± 2.5e-05
